According to publication PMC6183340 (2018):

Columns and labels:
[1] = target: T1, WT1 (modified WT1 235 peptide, mWT1 235) peptide on HLA-A*24:02 (human); assay: NFAT-GFP reporter; TCR-transduced 2D3 cells, T2-2402 and titrated mWT1 235 peptide; full-length, on cells
T1 peptide: CYTWNQMNL

[2] = target: T2, WT1 (natural WT1 235 peptide, nWT1 235) peptide on HLA-A*24:02 (human); assay: NFAT-GFP reporter; TCR-transduced 2D3 cells, T2-2402 and titrated nWT1 235 peptide; full-length, on cells
T2 peptide: CMTWNQMNL

B1: TM-H2-TCR (TCR)
alpha TRAV20*02 TRAJ52*01 CDR3: CAVRGGRAGGTSYGKLTF
beta TRBV9*01 TRBJ2-3*01 CDR3: CASSVFGSSTDTQYF
[1]
  EC50 of peptide: 29.3 nM
[2]
  EC50 of peptide: 180 nM

B2: FSK1-TCR (TCR)
alpha TRAV19*01 TRAJ26*01 CDR3: CALSAAYGQNFVF
beta TRBV6-5*01 TRBJ2-1*01 CDR3: CASSYGKGLYNEQFF
[1]
  EC50 of peptide: 976 nM

B3: TM-L1-TCR (TCR)
alpha TRAV17*01 TRAJ43*01 CDR3: CATDPGYNNDMRF
beta TRBV20-1*01 TRBJ2-2*01 CDR3: CSARGQRELSGELFF
[1]
  EC50 of peptide: 1780 nM
